Data taken from US20230235069A1 (KYMAB, published 2023).

Molecular target: T1, human OX40 ligand (human, UniProt P23510 51-183, limits assumed)
T1 construct: also called hOX40L; the target
T1 sequence (looked up): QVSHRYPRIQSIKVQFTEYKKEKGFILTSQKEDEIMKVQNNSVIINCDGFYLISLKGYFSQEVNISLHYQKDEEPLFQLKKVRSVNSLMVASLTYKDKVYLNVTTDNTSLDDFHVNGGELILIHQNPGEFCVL
Assay: PK ELISA of KY1005 in human serum on coated human OX40 ligand

binding result: binds
B1: KY1005 (antibody, human IgG4 S228P, kappa, V domains shown)
VH: EVQLVESGGGLVQPGGSLRLSCAASGFTFSNYAMNWVRQAPGKGLEWVSTISGSGGATRYADSVKGRFTISRDNSRNTVYLQMNSLRVEDTAVFYCTKDRLIMATVRGPYYYGMDVWGQGTTVTVSS
VL: DIQMTQSPSSLSASVGDRVTITCRASQSISSYLNWYQQKPGKAPNLLIYAASSLQSGVPSRFSGSGSETDFTLTISSLQPEDFATYYCQQSHSVSFTFGPGTKVDIKR
notes: also called 2D10; 02D10
